Patent US20070004636

Legend:
[1] = target: T1, human hepatocyte nuclear factor 1α (HNF-1α), His and Xpress-tagged at the N-terminus (not fully specified)
T1 chain: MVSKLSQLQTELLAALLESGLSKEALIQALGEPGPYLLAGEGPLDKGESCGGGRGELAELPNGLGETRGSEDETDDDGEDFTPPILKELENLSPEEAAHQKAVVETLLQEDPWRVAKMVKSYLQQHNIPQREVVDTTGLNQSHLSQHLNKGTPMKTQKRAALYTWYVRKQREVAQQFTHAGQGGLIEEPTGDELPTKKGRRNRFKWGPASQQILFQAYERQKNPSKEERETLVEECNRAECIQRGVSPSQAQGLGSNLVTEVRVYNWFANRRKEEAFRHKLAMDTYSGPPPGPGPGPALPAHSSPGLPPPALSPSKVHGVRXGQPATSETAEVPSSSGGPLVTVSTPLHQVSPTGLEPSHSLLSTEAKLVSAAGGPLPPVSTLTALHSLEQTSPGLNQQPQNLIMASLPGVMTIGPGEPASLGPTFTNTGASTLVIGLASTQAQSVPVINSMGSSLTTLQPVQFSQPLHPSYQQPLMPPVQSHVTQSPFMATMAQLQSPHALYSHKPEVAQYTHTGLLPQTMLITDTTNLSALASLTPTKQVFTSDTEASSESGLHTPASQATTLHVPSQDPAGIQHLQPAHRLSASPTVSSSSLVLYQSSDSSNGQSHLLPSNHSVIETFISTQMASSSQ

[2] = target: human insulin promoter factor 1 (IPF-1), His and Xpress-tagged at the N-terminus
Chain of human insulin promoter factor 1 (IPF-1), His and Xpress-tagged at the N-terminus (chain, as listed by the source): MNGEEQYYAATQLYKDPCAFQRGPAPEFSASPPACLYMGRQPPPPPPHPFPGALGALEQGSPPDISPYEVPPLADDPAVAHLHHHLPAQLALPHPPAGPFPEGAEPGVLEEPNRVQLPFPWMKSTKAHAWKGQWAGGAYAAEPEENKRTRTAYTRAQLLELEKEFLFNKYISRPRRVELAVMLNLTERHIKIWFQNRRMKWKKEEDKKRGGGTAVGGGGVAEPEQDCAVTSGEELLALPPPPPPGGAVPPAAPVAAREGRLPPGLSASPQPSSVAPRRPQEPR

[3] = target: T2, human hepatocyte nuclear factor 4α (HNF-4α), His and Xpress-tagged at the N-terminus
T2 chain: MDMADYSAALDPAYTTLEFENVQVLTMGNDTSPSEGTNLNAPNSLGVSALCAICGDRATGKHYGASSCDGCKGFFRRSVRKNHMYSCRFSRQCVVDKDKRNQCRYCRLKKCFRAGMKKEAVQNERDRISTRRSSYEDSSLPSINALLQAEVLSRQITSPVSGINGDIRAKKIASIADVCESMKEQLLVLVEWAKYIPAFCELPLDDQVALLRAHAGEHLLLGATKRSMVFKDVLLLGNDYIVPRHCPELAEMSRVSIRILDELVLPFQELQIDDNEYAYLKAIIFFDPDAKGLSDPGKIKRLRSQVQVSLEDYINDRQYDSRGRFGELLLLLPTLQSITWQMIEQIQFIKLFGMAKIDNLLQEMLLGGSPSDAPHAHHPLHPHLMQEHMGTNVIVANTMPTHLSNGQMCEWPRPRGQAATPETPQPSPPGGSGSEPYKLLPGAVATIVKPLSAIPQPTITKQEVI

B1: rat m-calpain (Calpain 2, rat recombinant, E. coli, Calbiochem, Inc.) (protein)
chain: MAGIAMKLAKDREAAEGLGSHERAIKYLNQDYETLRNECLEAGALFQDPSFPALPSSLGFKELGPYSSKTRGIEWKRPTEICADPQFIIGGATRTDICQGALGDCWLLAAIASLTLNEEILARVVPLDQSFQENYAGIFHFQFWQYGEWVEVVVDDRLPTKDGELLFVHSAEGSEFWSALLEKAYAKINGCYEALSGGATTEGFEDFTGGIAEWYELRKPPPNLFKIIQKALEKGSLLGCSIDITSAADSEAVTYQKLVKGHAYSVTGAEEVESSGSLQKLIRIRNPWGQVEWTGKWNDNCPSWNTVDPEVRANLTERQEDGEFWMSFSDFLRHYSRLEICNLTPDTLTCDSYKKWKLTKMDGNWRRGSTAGGCRNYPNTFWMNPQYLIKLEEEDEDDEDGERGCTFLVGLIQKHRRRQRKMGEDMHTIGFGIYEVPEELTGQTNIHLSKNFFLTTRARERSDTFINLREVLNRFKLPPGEYVLVPSTFEPHKNGDFCIRVFSEKKADYQTVDDEIEANIEEIEANEEDIGDGFRRLFAQLAGEDAEISAFELQTILRRVLAKREDIKSDGFSIETCKIMVDMLDEDGSGKLGLKEFYILWTKIQKYQKIYREIDVDRSGTMNSYEMRKALEEAGFKLPCQLHQVIVARFADDELIIDFDNFVRCLVRLEILFKIFKQLDPENTGTIQLDLISWLSFSVL
in vitro protein degradation test, Western blotting with anti-Omni/M21 and anti-HNF-1α antibody [1]: the in vitro degradation of HNF-1α by each of human µ-calpain, rabbit m-calpain and rat m-calpain was observed | in vitro protein degradation test, Western blotting with anti-Xpress and anti-IPF-1 antibody [2]: the in vitro degradation of IPF-1 by each of human µ-calpain, rabbit m-calpain and rat m-calpain was observed

B2: human µ-calpain extracted from human erythrocytes (Calpain 1, human erythrocytes; Calbiochem, Inc.) (protein)
chain: SEEIITPVYCTGVSAQVQKQRARELGLGRHENAIKYLGQDYEQLRVRCLQSGTLFRDEAFPPVPQSLGYKDLGPNSSKTYGIKWKRPTELLSNPQFIVDGATRTDICQGALGDCWLLAAIASLTLNDTLLHRVVPHGQSFQNGYAGIFHFQLWQFGEWVDVVVDDLLPIKDGKLVFVHSAEGNEFWSALLEKAYAKVNGSYEALSGGSTSEGFEDFTGGVTEWYELRKAPSDLYQIILKALERGSLLGCSIDISSVLDMEAITFKKLVKGHAYSVTGAKQVNYRGQVVSLIRMRNPWGEVEWTGAWSDSSSEWNNVDPYERDQLRVKMEDGEFWMSFRDFMREFTRLEICNLTPDALKSRTIRKWNTTLYEGTWRRGSTAGGCRNYPATFWVNPQFKIRLDETDDPDDYGDRESGCSFVLALMQKHRRRERRFGRDMETIGFAVYEVPPELVGQPAVHLKRDFFLANASRARSEQFINLREVSTRFRLPPGEYVVVPSTFEPNKEGDFVLRFFSEKSAGTVELDDQIQANLPDEQVLSEEEIDENFKALFRQLAGEDMEISVKELRTILNRIISKHKDLRTKGFSLESCRSMVNLMDRDGNGKLGLVEFNILWNRIRNYLSIFRKFDLDKSGSMSAYEMRMAIESAGFKLNKKLYELIITRYSEPDLAVDFDNFVCCLVRLETMFRFFKTLDTDLDGVVTFDLFKWLQLTMFA
in vitro protein degradation test, Western blotting with anti-Omni/M21 and anti-HNF-1α antibody [1]: the in vitro degradation of HNF-1α by each of human µ-calpain, rabbit m-calpain and rat m-calpain was observed | in vitro protein degradation test, Western blotting with anti-HNF-4α antibody [3]: the degradation of HNF-4α by human µ-calpain was observed | in vitro protein degradation test, Western blotting with anti-Xpress and anti-IPF-1 antibody [2]: the in vitro degradation of IPF-1 by each of human µ-calpain, rabbit m-calpain and rat m-calpain was observed
